Assay in all cases: cell-based or functional assay
In experiment [1] the target is murine IL12 receptor complex (IL12Rβ1 and IL12Rβ2) (mouse) (UniProt Q60837).
The target is the same in experiment [2]. The source holds these as a separate data set.
The target is the same in experiment [3]. This is another data set of the same source.

Where two headings read alike, the source gives them in different places.

Drawing on patent publication US20230051304A1 (Regeneron, published 2023), this text covers EC50 (M); STAT3-Luc reporter, CTLL2/STAT3-Luc cells, Fold induction and Max fold induction; STAT3-Luc reporter, CTLL2/STAT3-Luc cells for one molecule.

Chain of murine IL12 receptor complex (IL12Rβ1 and IL12Rβ2) (mouse) (Q60837 20-738, chain 1 of 2): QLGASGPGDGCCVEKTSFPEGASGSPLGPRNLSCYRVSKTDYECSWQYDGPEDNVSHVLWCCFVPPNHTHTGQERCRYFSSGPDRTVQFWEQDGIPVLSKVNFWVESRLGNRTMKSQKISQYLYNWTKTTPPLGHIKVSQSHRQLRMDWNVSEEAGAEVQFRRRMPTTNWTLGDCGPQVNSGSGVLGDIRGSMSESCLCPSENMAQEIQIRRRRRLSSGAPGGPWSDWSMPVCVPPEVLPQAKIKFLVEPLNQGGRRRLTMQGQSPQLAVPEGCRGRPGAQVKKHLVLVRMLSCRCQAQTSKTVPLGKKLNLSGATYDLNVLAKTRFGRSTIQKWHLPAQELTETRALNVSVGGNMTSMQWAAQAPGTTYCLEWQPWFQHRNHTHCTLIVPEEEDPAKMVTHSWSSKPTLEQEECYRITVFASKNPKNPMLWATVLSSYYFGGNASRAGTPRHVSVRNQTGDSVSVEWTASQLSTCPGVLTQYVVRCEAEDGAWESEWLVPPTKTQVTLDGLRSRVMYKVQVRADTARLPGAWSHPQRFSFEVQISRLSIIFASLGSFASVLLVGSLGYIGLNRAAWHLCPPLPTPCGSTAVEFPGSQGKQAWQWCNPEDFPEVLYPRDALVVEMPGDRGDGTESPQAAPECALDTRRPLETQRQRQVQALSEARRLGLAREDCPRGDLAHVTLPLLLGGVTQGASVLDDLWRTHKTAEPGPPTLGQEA
Chain of murine IL12 receptor complex (IL12Rβ1 and IL12Rβ2) (mouse) (P97378 24-874, chain 2 of 2, further chain): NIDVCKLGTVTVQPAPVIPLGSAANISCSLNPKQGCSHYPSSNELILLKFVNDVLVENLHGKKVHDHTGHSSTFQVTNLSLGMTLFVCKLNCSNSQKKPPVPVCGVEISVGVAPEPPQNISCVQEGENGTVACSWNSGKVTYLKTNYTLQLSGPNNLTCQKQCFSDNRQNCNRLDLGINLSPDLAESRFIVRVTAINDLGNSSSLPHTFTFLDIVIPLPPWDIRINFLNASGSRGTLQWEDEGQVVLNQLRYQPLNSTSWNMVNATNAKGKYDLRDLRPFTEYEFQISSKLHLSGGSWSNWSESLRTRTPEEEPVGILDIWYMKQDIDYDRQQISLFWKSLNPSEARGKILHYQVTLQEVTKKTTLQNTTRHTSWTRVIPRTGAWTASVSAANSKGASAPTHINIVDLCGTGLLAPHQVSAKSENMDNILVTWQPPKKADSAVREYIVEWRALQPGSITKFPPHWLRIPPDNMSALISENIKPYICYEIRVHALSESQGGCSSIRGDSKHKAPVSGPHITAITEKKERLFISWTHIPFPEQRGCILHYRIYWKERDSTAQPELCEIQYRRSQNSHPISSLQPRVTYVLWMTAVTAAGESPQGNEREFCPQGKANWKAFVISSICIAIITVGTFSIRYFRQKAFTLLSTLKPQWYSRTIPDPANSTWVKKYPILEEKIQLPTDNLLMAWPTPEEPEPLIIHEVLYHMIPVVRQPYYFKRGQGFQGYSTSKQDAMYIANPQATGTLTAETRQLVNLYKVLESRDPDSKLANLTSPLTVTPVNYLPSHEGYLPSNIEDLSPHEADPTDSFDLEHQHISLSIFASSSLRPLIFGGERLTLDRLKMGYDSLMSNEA

B1: recombinant mIL12 (ligand, mouse)
chain 1: RVIPVSGPARCLSQSRNLLKTTDDMVKTAREKLKHYSCTAEDIDHEDITRDQTSTLKTCLPLELHKNESCLATRETSSTTRGSCLPPQKTSLMMTLCLGSIYEDLKMYQTEFQAINAALQNHNHQQIILDKGMLVAIDELMQSLNHNGETLRQKPPVGEADPYRVKMKLCILLHAFSTRVVTINRVMGYLSSA
chain 2: MWELEKDVYVVEVDWTPDAPGETVNLTCDTPEEDDITWTSDQRHGVIGSGKTLTITVKEFLDAGQYTCHKGGETLSHSHLLLHKKENGIWSTEILKNFKNKTFLKCEAPNYSGRFTCSWLVQRNMDLKFNIKSSSSSPDSRAVTCGMASLSAEKVTLDQRDYEKYSVSCQEDVTCPTAEETLPIELALEARQQNKYENYSTSFFIRDIIKPDPPKNLQMKPLKNSQVEVSWEYPDSWSTPHSYFSLKFFVRIQRKKEKMKETEEGCNQKGAFLVEKTSTEVQCKGGNVCVQAQDRYYNSSCSKWACVPCRVRS
Consider B1, for which, in experiment [1], the EC50 (M); STAT3-Luc reporter, CTLL2/STAT3-Luc cells is 5.56e-11 M; the Fold induction at 6.25 nM; STAT3-Luc reporter, CTLL2/STAT3-Luc cells was determined as 12.2 fold; the Max fold induction; STAT3-Luc reporter, CTLL2/STAT3-Luc cells is 12.4 fold. In addition, in experiment [2], the EC50 (M); STAT3-Luc reporter, CTLL2/STAT3-Luc cells was determined as 3.46e-11 M; the Fold induction at 20 nM; STAT3-Luc reporter, CTLL2/STAT3-Luc cells is 18.8 fold; the Max fold induction; STAT3-Luc reporter, CTLL2/STAT3-Luc cells is 19.1 fold. Also, in experiment [3], the EC50 (M); STAT3-Luc reporter, CTLL2/STAT3-Luc cells worked out at 3.71e-10 M and the Max fold induction; STAT3-Luc reporter, CTLL2/STAT3-Luc cells stood at 17.8 fold.
